Test results taken from US20140308239A1 (ELEVEN BIOTHERAPEUTICS, published 2014).

T1: soluble recombinant human IL-1RI (corresponding to the extracellular domain of IL-1RI) (human, UniProt P14778 18-336)
T1 construct: extracellular domain
T1 sequence (looked up): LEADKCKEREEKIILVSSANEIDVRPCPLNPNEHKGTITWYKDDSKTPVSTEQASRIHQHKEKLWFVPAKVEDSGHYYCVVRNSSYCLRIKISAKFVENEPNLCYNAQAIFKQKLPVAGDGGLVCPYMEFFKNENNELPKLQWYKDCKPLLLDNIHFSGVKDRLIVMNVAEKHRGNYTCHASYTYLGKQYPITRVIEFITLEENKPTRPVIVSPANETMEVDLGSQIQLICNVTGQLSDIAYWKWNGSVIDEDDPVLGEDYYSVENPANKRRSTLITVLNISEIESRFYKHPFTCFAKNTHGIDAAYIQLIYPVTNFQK

T2: IL-1RI on HEK-Blue IL-1β responsive cells (UniProt P14778 18-569)
T2 sequence (looked up): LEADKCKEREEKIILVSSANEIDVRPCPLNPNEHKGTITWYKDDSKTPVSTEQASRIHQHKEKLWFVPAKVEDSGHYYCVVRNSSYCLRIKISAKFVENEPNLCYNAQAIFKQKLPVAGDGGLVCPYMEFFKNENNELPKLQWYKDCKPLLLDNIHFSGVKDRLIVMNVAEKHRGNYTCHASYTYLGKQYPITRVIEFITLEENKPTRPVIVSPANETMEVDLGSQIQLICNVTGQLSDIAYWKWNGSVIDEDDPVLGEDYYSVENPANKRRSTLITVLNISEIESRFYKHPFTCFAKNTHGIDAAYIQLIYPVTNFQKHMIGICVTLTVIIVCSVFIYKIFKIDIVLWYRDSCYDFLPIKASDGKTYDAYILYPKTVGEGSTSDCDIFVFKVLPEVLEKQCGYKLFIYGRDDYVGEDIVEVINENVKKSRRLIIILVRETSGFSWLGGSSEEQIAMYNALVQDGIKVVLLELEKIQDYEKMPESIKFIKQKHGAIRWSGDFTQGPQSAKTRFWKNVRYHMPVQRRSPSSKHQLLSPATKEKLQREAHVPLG


Experiments:
[1] = target: IL-1RI on HEK-Blue IL-1β responsive cells (UniProt P14778)
[2] = target: T1, soluble recombinant human IL-1RI …; experiment: SPR (Reichert SR7000DC), soluble recombinant human IL-1RI, PBS with 0.005% Tween 20
Experimental: The binding properties of proteins for soluble recombinant human IL-1RI (corresponding to the extracellular domain of IL-1RI) were evaluated using surface plasmon resonance with a Reichert SR7000DC Dual Channel SPR system. Binding was evaluated in phosphate buffered saline with 0.005% Tween 20. […] Thus, the P01 protein bound to IL-1RI with a greater affinity than did IL-1β under similar conditions.

[3] = target: T2, IL-1RI on HEK-Blue IL-1β responsive …; experiment: cell-based or functional assay
[4] = target: T2, IL-1RI on HEK-Blue IL-1β responsive …; experiment: cell-based or functional assay; remark: listed apart in the source
[5] = target: T2, IL-1RI on HEK-Blue IL-1β responsive …; experiment: cell-based or functional assay; remark: listed apart in the source

Row | Molecule | OD650 (SEAP reporter of HEK-Blue IL-1β cells, agonism test, negative control; amount of protein not given) [1] | Kd [2] | koff [2] | kon [2] | OD650 (SEAP reporter of HEK-Blue IL-1β cells, agonism test, protein alone; amount of protein not given) [3] | IC50 (read off the curve); HEK-Blue IL-1β SEAP reporter, IL-1β 0.1 ng/ml, lysate with untagged P01, concentration estimated [4] | IC50 (read off the curve); HEK-Blue IL-1β SEAP reporter, IL-1β 0.1 ng/ml, lysate with untagged P02, concentration estimated [4] | IC50 (read off the curve); HEK-Blue IL-1β SEAP reporter, IL-1β 0.1 ng/ml, lysate with untagged P04, concentration estimated [4] | IC50, antagonism of IL-1β activity in the HEK-Blue IL-1β SEAP reporter assay [5] | IC50 (read off the curve); HEK-Blue IL-1β SEAP reporter, IL-1β 0.1 ng/ml, lysate with untagged P03, concentration estimated [4]
1 | P01 (designed binder, Expressed in E. coli; In the cell assay, supernatants or lysates containing P01 were used; also called chimeric cytokine domain P01) APVRSLAFRIWDVNQKTFYLRNNQLVAGYLQGPNVNLEEKIDVSFVQGEESNDKIPVALGIHGGKMCLSCVKSGDETRLQLEAVDPKNYPKKKMDKRFAFIRSDSGPTTSFESAACPGWFLCTAMEADQPVSLTNMPDEGVMVTKFYMQFVSS |  | 0.47 nM | 2.32e-05 s⁻¹ | 49300 M⁻¹ s⁻¹ | 0.061 OD650 | ~1 ng/mL |  |  |  | 
2 | P02 (designed binder, Expressed in E. coli; also called chimeric cytokine domain P02) APVRSLAFRIWDVNQKTFYLRNNQLVAGYLQGPNVNLEEKIDVSFVQGEESNDKIPVALGIHGGKMCLSCVKSGDETRLQLEAVDPKNYPKKKMEKRFVFNKIEINNKLSFESAACPGWFLCTAMEADQPVSLTNMPDEGVMVTKFYMQFVSS |  | 0.636 nM | 2.16e-05 s⁻¹ | 33900 M⁻¹ s⁻¹ |  |  | ~1 ng/mL |  |  | 
3 | P04 (designed binder, Expressed in E. coli; also called chimeric cytokine domain P04) APVRSLAFRIWDVNQKTFYLRNNQLVAGYLQGPNVNLEEKFSMSFVQGEESNDKIPVALGLKEKNLYLSCVLKDDKPTLQLESVDPKNYPKKKMEKRFVFNKIEINNKLEFESAACPGWFLCTAMEADQPVSLTNMPDEGVMVTKFTMQFVSS |  | 1.71 nM |  |  |  |  |  | ~6 ng/mL |  | 

The next lines start with the values.

Row | OD650 (SEAP reporter of HEK-Blue IL-1β cells, agonism test, negative control; amount of protein not given) [1] | Kd [2] | koff [2] | kon [2] | OD650 (SEAP reporter of HEK-Blue IL-1β cells, agonism test, protein alone; amount of protein not given) [3] | IC50 (read off the curve); HEK-Blue IL-1β SEAP reporter, IL-1β 0.1 ng/ml, lysate with untagged P01, concentration estimated [4] | IC50 (read off the curve); HEK-Blue IL-1β SEAP reporter, IL-1β 0.1 ng/ml, lysate with untagged P02, concentration estimated [4] | IC50 (read off the curve); HEK-Blue IL-1β SEAP reporter, IL-1β 0.1 ng/ml, lysate with untagged P04, concentration estimated [4] | IC50, antagonism of IL-1β activity in the HEK-Blue IL-1β SEAP reporter assay [5] | IC50 (read off the curve); HEK-Blue IL-1β SEAP reporter, IL-1β 0.1 ng/ml, lysate with untagged P03, concentration estimated [4] | Molecule
4 | 0.06 OD650 |  |  |  |  |  |  |  |  |  | GUS (enzyme)
5 |  | 0.41 nM | 0.0017 s⁻¹ | 4.8e+06 M⁻¹ s⁻¹ | 1.78 OD650 |  |  |  |  |  | P06 (designed binder, Expressed in E. coli) APVRSLNCTLWDVNQKTFYLRNNQLVAGYLQGPNVEQQVVFSMSFVQGEESNDKIPVALGLKEKNLYLSCVLKDDKPTLQLESVDPKNYPKKKMEKRFVFNKIEINNKLEFESAQFPNWYISTSMEADQPVFLGGTKGGQDITDFTMQFVSS
6 |  | 0.012 nM | 4.15e-05 s⁻¹ | 3.47e+06 M⁻¹ s⁻¹ |  |  |  |  | < 5 ng/mL |  | P05 (designed binder, Expressed in E. coli; also called EBI-005; chimeric cytokine domain P05) APVRSLNCRIWDVNQKTFYLRNNQLVAGYLQGPNVNLEEKFSMSFVQGEESNDKIPVALGLKEKNLYLSCVLKDDKPTLQLESVDPKNYPKKKMEKRFVFNKIEINNKLEFESAQFPNWFLCTAMEADQPVSLTNMPDEGVMVTKFYMQFVSS
7 |  | 92.6 nM | 0.00146 s⁻¹ | 15800 M⁻¹ s⁻¹ | 0.222 OD650 |  |  |  |  |  | P07 (designed binder, Expressed in E. coli) APVRSLNCRIWDVNQKTFYLRNNQLVAGYLQGPNVNLEEKFSMSFVQGEESNDKIPVALGLKEKNLYLSCVLKDDKPTLQLESVDPKNYPKKKMEKRFVFNKIEINNKLEFESAQFPNWFLCTAMEADQPVSLTNMPDEGQDITDFTMQFVSS
8 |  | 0.29 nM | 0.0012 s⁻¹ | 4.1e+06 M⁻¹ s⁻¹ |  |  |  |  |  | ~2 ng/mL | P03 (designed binder, Expressed in E. coli; also called chimeric cytokine domain P03) APVRSLAFRIWDVNQKTFYLRNNQLVAGYLQGPNVNLEEKFSMSFVQGEESNDKIPVALGLKEKNLYLSCVLKDDKPTLQLESVDPKNYPKKKMEKRFVFIRSDSGPTTSFESAACPGWFLCTAMEADQPVSLTNMPDEGVMVTKFTMQFVSS
